# Test results from US20150203577A1 (Chugai, published 2015).
# T1: mouse FcγRII (mouse, UniProt P08101 30-210)
# T1 construct: Extracellular domain with C-terminal His tag; also called mFcγRII; mFcgRII
# T1 sequence: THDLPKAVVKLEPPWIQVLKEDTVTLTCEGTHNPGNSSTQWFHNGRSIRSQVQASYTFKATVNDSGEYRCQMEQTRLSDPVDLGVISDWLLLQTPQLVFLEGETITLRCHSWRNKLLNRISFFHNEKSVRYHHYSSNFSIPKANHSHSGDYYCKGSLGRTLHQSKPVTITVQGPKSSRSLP
# T2: mouse FcγRIII (mouse, UniProt P08508 31-215)
# T2 construct: Extracellular domain with C-terminal His tag; also called mFcγRIII; mFcgRIII
# T2 chain: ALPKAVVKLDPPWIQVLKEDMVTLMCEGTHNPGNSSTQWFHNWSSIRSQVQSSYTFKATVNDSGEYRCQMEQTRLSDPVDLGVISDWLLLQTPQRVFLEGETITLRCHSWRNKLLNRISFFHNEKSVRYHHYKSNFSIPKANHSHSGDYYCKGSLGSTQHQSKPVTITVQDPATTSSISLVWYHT
# T3: mouse FcγRII (mouse, UniProt P08101 30-210)
# T3 construct: also called mFcγRII; mFcgRII
# T3 sequence: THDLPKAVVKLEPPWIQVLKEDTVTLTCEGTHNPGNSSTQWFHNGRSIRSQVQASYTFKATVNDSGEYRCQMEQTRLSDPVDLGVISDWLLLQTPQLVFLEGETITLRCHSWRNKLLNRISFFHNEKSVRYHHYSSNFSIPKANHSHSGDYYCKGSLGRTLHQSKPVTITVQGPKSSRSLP
# T4: mouse FcγRIII (mouse, UniProt P08508 31-215)
# T4 construct: also called mFcγRIII; mFcgRIII
# T4 chain: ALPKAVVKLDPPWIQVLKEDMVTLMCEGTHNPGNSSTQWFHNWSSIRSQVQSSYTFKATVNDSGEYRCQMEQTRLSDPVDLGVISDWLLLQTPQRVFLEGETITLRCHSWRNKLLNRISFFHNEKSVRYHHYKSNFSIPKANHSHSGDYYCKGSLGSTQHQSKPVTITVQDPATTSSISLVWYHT
# How the values were obtained:
# [1] = molecular target: T1, mouse FcγRII; test: SPR (Biacore T200); KD of H237-MB630/MRAL-k0 / KD of variant
# [2] = molecular target: T2, mouse FcγRIII; test: as above
# [3] = molecular target: T1, mouse FcγRII; test: SPR (Biacore T200); KD of H237-mIgG1/MRAL-k0 / KD of variant
# [4] = molecular target: T2, mouse FcγRIII; test: as above
# [5] = molecular target: T3, mouse FcγRII; test: SPR (Biacore), antibody captured on Protein L, mFcγR as analyte
# Procedure: (§1) Each altered antibody was analyzed for its interaction with each Fcγ receptor prepared above using Biacore T100 (GE Healthcare Japan Corp.), Biacore T200 (GE Healthcare Japan Corp.), Biacore A100, or Biacore 4000. The running buffer used was HBS-EP+ (GE Healthcare Japan Corp.). The assay temperature was set to 25° C. The sensor chips used were chips prepared by immobilizing Protein L (ACTIGEN or BioVision) onto Series S Sensor Chip CM5 (GE Healthcare Japan Corp.) or Series S Sensor Chip CM4 (GE Healthcare Japan Corp.) by the amine coupling method.
# (§2) In order to calculate the KD value of each altered antibody for FcγR, kinetic analysis was conducted according to the following method: first, the antibody of interest was captured onto any of these chips and allowed to interact with mFcγR diluted with a running buffer. For the obtained sensorgram, the assay results were globally fit into the 1:1 Langmuir binding model using Biacore Evaluation Software to calculate an association rate constant ka (L/mol/s) and a dissociation rate constant kd (1/s). From these values, the dissociation constant KD (mol/L) was calculated.
# [6] = molecular target: T4, mouse FcγRIII; test: as above
# Procedure: as §1, §2
Binder,Relative mFcγRII-binding activity (MB630 = 1) [1] [fold],Relative mFcγRIII-binding activity (MB630 = 1) [2] [fold],relative mFcγRII-binding activity (mIgG1 = 1) [3] [fold],relative mFcγRIII-binding activity (mIgG1 = 1) [4] [fold],Kd [5] [nM],relative mFcγRII-binding activity (mIgG1 = 1) [5] [fold],Kd [6] [nM],relative mFcγRIII-binding activity (mIgG1 = 1) [6] [fold]
"H237-MB607/MRAL-k0 (antibody, mouse IgG1, kappa, mouse IgG1 CH variant; copies: 2 + 2) heavy: QVQLQESGPGLVKPSETLSLTCAVSGHSISHDHAWSWVRQPPGEGLEWIGFISYSGITNYNPSLQGRVTISRDNSKNTLYLQMNSLRAEDTAVYYCARSLARTTAMDYWGEGTLVTVSSAKTTPPSVYPLAPGSAAQTNSMVTLGCLVKGYFPEPVTVTWNSGSLSSGVHTFPAVLQSDLYTLSSSVTVPSSTWPSETVTCNVAHPASSTKVDKKIVPRDCGCKPCICTVPEEEEVFIFPPKPKDVLTITLTPKVTCVVVDISKDDPEVQFSWFVDDVEVHTAQTQPREEQFNSTFRSVSELPIMHQDWLNGKEFKCRVNSAAFPAPIEKTISKTKGRPKAPQVYTIPPPKEQMAKDKVSLTCMITDFFPEDITVEWQWNGQPAENYKNTQPIMDTDGSYFVYSKLNVQKSNWEAGNTFTCSVLHEGLHNHHTEKSLSHSPGK light: not shown",–,–,–,–,67.9,3.14,1770,0.18
"H237-MB617/MRAL-k0 (antibody, mouse IgG1, kappa, mouse IgG1 CH variant; copies: 2 + 2) heavy: QVQLQESGPGLVKPSETLSLTCAVSGHSISHDHAWSWVRQPPGEGLEWIGFISYSGITNYNPSLQGRVTISRDNSKNTLYLQMNSLRAEDTAVYYCARSLARTTAMDYWGEGTLVTVSSAKTTPPSVYPLAPGSAAQTNSMVTLGCLVKGYFPEPVTVTWNSGSLSSGVHTFPAVLQSDLYTLSSSVTVPSSTWPSETVTCNVAHPASSTKVDKKIVPRDCGCKPCICTVPEESDVDIFPPKPKDVLTITLTPKVTCVVVDISKDDPEVQFSWFVDDVEVHTAQTQPREEQFNSTFRSVSELPIMHQDWLNGKEFKCRVNSAAFPAPIEKTISKTKGRPKAPQVYTIPPPKEQMAKDKVSLTCMITDFFPEDITVEWQWNGQPAENYKNTQPIMDTDGSYFVYSKLNVQKSNWEAGNTFTCSVLHEGLHNHHTEKSLSHSPGK light: not shown",–,–,–,–,255,0.84,2100,0.15

# The next lines start with the values.
Relative mFcγRII-binding activity (MB630 = 1) [1] [fold],Relative mFcγRIII-binding activity (MB630 = 1) [2] [fold],relative mFcγRII-binding activity (mIgG1 = 1) [3] [fold],relative mFcγRIII-binding activity (mIgG1 = 1) [4] [fold],Kd [5] [nM],relative mFcγRII-binding activity (mIgG1 = 1) [5] [fold],Kd [6] [nM],relative mFcγRIII-binding activity (mIgG1 = 1) [6] [fold],Binder
7.91,18.3,83.8,3.34,–,–,–,–,"MB865 (antibody, mouse IgG1, kappa, CH name; VH H237 + CH, L chain MRAL-k0; copies: 2 + 2) heavy: QVQLQESGPGLVKPSETLSLTCAVSGHSISHDHAWSWVRQPPGEGLEWIGFISYSGITNYNPSLQGRVTISRDNSKNTLYLQMNSLRAEDTAVYYCARSLARTTAMDYWGEGTLVTVSSAKTTPPSVYPLAPGSAAQTNSMVTLGCLVKGYFPEPVTVTWNSGSLSSGVHTFPAVLQSDLYTLSSSVTVPSSTWPSETVTCNVAHPASSTKVDKKIVPRDCGCKPCICEPNEVELVFIFPPKPKDVLTITLTPKVTCVVVDISDDDPEVQFSWFVDDVEVHTAQTQPREELFNSTFRSVSELPIMHQDWLNGKEFKCRVNSDGFPAPIEKTISKTKGRPKAPQVYTIPPPKEQMAKDKVSLTCMITDFFPEDITVEWQWNGQPAENYKNTQPIMDTDGSYFVYSKLNVQKSNWEAGNTFTCSVLHEGLHNHHTEKSLSHSPGK light: not shown"
–,–,–,–,192,1.11,3420,0.09,"H237-MB611/MRAL-k0 (antibody, mouse IgG1, kappa, mouse IgG1 CH variant; copies: 2 + 2) heavy: QVQLQESGPGLVKPSETLSLTCAVSGHSISHDHAWSWVRQPPGEGLEWIGFISYSGITNYNPSLQGRVTISRDNSKNTLYLQMNSLRAEDTAVYYCARSLARTTAMDYWGEGTLVTVSSAKTTPPSVYPLAPGSAAQTNSMVTLGCLVKGYFPEPVTVTWNSGSLSSGVHTFPAVLQSDLYTLSSSVTVPSSTWPSETVTCNVAHPASSTKVDKKIVPRDCGCKPCICTVPEEDEVFIFPPKPKDVLTITLTPKVTCVVVDISKDDPEVQFSWFVDDVEVHTAQTQPREEQFNSTFRSVSELPIMHQDWLNGKEFKCRVNSAAFPAPIEKTISKTKGRPKAPQVYTIPPPKEQMAKDKVSLTCMITDFFPEDITVEWQWNGQPAENYKNTQPIMDTDGSYFVYSKLNVQKSNWEAGNTFTCSVLHEGLHNHHTEKSLSHSPGK light: not shown"
